# Assay results: the RNAGym collection of RNA variant scans (doi:10.1093/molbev/msab373)
# B1: Azoarcus group I ribozyme (parent)
# chain: GUGCCUUGCGCCGGGAAACCACGCAAGGGAUGGUGUCAAAUUCGGCGAAACCUAAGCGCCCGCCCGGGCGUAUGGCAACGCCGAGCCAAGCUUCGGCGCCUGCGCCGAUGAAGGUGUAGAGACUAGACGGCACCCACCUAAGGCAAACGCUAUGGUGAAGGCAUAGUCCAGGGAGUGGCGAAAGUCACACAAACCGG
# Variants of: B1
# Assay: reverse-splicing fitness (ratio to wild type); higher = more active; in vitro selection; Mg2+ level not given
# In short: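 An in vitro group I ribozyme library with randomized positions was T7-transcribed and gel-purified. In triplicate, 10 pmol RNA in EPPS pH 7.5 was reacted with 50 pmoles of a 30-nt RNA substrate for 1 h at 37 °C across several added MgCl2 levels (1–48 mM), then stopped with EDTA. Products were reverse transcribed from a substrate-complementary primer, PCR-amplified and sequenced (HiSeq 4000). Fitness is a variant's read proportion after selection over that before, normalised to wild type.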
row,Variant,reverse-splicing fitness
1,GUGCCUUGCGCCGGGAAACCACGCAAGGGAUGGUGUCAAAUUCGGCGAAACCUAAGCGCCCGCCCGGGCGUAUGGCAACGCUGAGCCAAGCUUCGGCGCCUGCGCCGAUGAAGGUGUAGCGACUAGACGGCACCCACCUAAGGCCAACGGUAUGGUGAAGGCAUAGUCAAGGGAGCGGCGAAAGUCACACAAACCGG [C82U A120C A145C C150G C169A U176C],0.0042
2,GUGCCUUGCGCCGGGAAACCACGCAAGGGAUGGUGUCAAAUUCGGCGAAACCUAAGCGCCCGCCCGGGCGUAUGGCAACGCUGAGCCAAGCUUCGGCGCCUGCGCCGAUGAAGGUGUAGCGACUAGACGGCACCCACCUAAGGCCAACGGUAUGGUGAAGGCAUAGUCAAGGGAGGGGCGAAAGUCACACAAACCGG [C82U A120C A145C C150G C169A U176G],0.00379
3,GUGCCUUGCGCCGGGAAACCACGCAAGGGAUGGUGUCAAAUUCGGCGAAACCUAAGCGCCCGCCCGGGCGUAUGGCAACGCUGAGCCAAGCUUCGGCGCCUGCGCCGAUGAAGGUGUAGCGACUAGACGGCACCCACCUAAGGCCAACGGUAUGGUGAAGGCAUAGUCGAGGGAGUGGCGAAAGUCACACAAACCGG [C82U A120C A145C C150G C169G],0.00584
4,GUGCCUUGCGCCGGGAAACCACGCAAGGGAUGGUGUCAAAUUCGGCGAAACCUAAGCGCCCGCCCGGGCGUAUGGCAACGCUGAGCCAAGCUUCGGCGCCUGCGCCGAUGAAGGUGUAGCGACUAGACGGCACCCACCUAAGGCCAACGGUAUGGUGAAGGCAUAGUCGAGGGAGAGGCGAAAGUCACACAAACCGG [C82U A120C A145C C150G C169G U176A],0.00773
5,GUGCCUUGCGCCGGGAAACCACGCAAGGGAUGGUGUCAAAUUCGGCGAAACCUAAGCGCCCGCCCGGGCGUAUGGCAACGCUGAGCCAAGCUUCGGCGCCUGCGCCGAUGAAGGUGUAGCGACUAGACGGCACCCACCUAAGGCCAACGGUAUGGUGAAGGCAUAGUCGAGGGAGCGGCGAAAGUCACACAAACCGG [C82U A120C A145C C150G C169G U176C],0.00518
6,GUGCCUUGCGCCGGGAAACCACGCAAGGGAUGGUGUCAAAUUCGGCGAAACCUAAGCGCCCGCCCGGGCGUAUGGCAACGCUGAGCCAAGCUUCGGCGCCUGCGCCGAUGAAGGUGUAGCGACUAGACGGCACCCACCUAAGGCCAACGGUAUGGUGAAGGCAUAGUCGAGGGAGGGGCGAAAGUCACACAAACCGG [C82U A120C A145C C150G C169G U176G],0.00305
7,GUGCCUUGCGCCGGGAAACCACGCAAGGGAUGGUGUCAAAUUCGGCGAAACCUAAGCGCCCGCCCGGGCGUAUGGCAACGCUGAGCCAAGCUUCGGCGCCUGCGCCGAUGAAGGUGUAGCGACUAGACGGCACCCACCUAAGGCCAACGGUAUGGUGAAGGCAUAGUCUAGGGAGUGGCGAAAGUCACACAAACCGG [C82U A120C A145C C150G C169U],0.0107
8,GUGCCUUGCGCCGGGAAACCACGCAAGGGAUGGUGUCAAAUUCGGCGAAACCUAAGCGCCCGCCCGGGCGUAUGGCAACGCUGAGCCAAGCUUCGGCGCCUGCGCCGAUGAAGGUGUAGCGACUAGACGGCACCCACCUAAGGCCAACGGUAUGGUGAAGGCAUAGUCUAGGGAGAGGCGAAAGUCACACAAACCGG [C82U A120C A145C C150G C169U U176A],0.00992
9,GUGCCUUGCGCCGGGAAACCACGCAAGGGAUGGUGUCAAAUUCGGCGAAACCUAAGCGCCCGCCCGGGCGUAUGGCAACGCUGAGCCAAGCUUCGGCGCCUGCGCCGAUGAAGGUGUAGCGACUAGACGGCACCCACCUAAGGCCAACGGUAUGGUGAAGGCAUAGUCUAGGGAGCGGCGAAAGUCACACAAACCGG [C82U A120C A145C C150G C169U U176C],0.00991
10,GUGCCUUGCGCCGGGAAACCACGCAAGGGAUGGUGUCAAAUUCGGCGAAACCUAAGCGCCCGCCCGGGCGUAUGGCAACGCUGAGCCAAGCUUCGGCGCCUGCGCCGAUGAAGGUGUAGCGACUAGACGGCACCCACCUAAGGCCAACGGUAUGGUGAAGGCAUAGUCUAGGGAGGGGCGAAAGUCACACAAACCGG [C82U A120C A145C C150G C169U U176G],0.00403
11,GUGCCUUGCGCCGGGAAACCACGCAAGGGAUGGUGUCAAAUUCGGCGAAACCUAAGCGCCCGCCCGGGCGUAUGGCAACGCUGAGCCAAGCUUCGGCGCCUGCGCCGAUGAAGGUGUAGCGACUAGACGGCACCCACCUAAGGCCAACGGUAUGGUGAAGGCAUAGUCCAGGGAGAGGCGAAAGUCACACAAACCGG [C82U A120C A145C C150G U176A],0.00639
12,GUGCCUUGCGCCGGGAAACCACGCAAGGGAUGGUGUCAAAUUCGGCGAAACCUAAGCGCCCGCCCGGGCGUAUGGCAACGCUGAGCCAAGCUUCGGCGCCUGCGCCGAUGAAGGUGUAGCGACUAGACGGCACCCACCUAAGGCCAACGGUAUGGUGAAGGCAUAGUCCAGGGAGCGGCGAAAGUCACACAAACCGG [C82U A120C A145C C150G U176C],0.0126
13,GUGCCUUGCGCCGGGAAACCACGCAAGGGAUGGUGUCAAAUUCGGCGAAACCUAAGCGCCCGCCCGGGCGUAUGGCAACGCUGAGCCAAGCUUCGGCGCCUGCGCCGAUGAAGGUGUAGCGACUAGACGGCACCCACCUAAGGCCAACGGUAUGGUGAAGGCAUAGUCCAGGGAGGGGCGAAAGUCACACAAACCGG [C82U A120C A145C C150G U176G],0.00307
14,GUGCCUUGCGCCGGGAAACCACGCAAGGGAUGGUGUCAAAUUCGGCGAAACCUAAGCGCCCGCCCGGGCGUAUGGCAACGCUGAGCCAAGCUUCGGCGCCUGCGCCGAUGAAGGUGUAGCGACUAGACGGCACCCACCUAAGGCCAACGUUAUGGUGAAGGCAUAGUCCAGGGAGUGGCGAAAGUCACACAAACCGG [C82U A120C A145C C150U],0.0393
15,GUGCCUUGCGCCGGGAAACCACGCAAGGGAUGGUGUCAAAUUCGGCGAAACCUAAGCGCCCGCCCGGGCGUAUGGCAACGCUGAGCCAAGCUUCGGCGCCUGCGCCGAUGAAGGUGUAGCGACUAGACGGCACCCACCUAAGGCCAACGUUAUGGUGAAGGCAUAGUCAAGGGAGUGGCGAAAGUCACACAAACCGG [C82U A120C A145C C150U C169A],0.00607
